# Data published in the nanobody polyreactivity screen of Harvey et al. (2022).
# Test: yeast display, Sf9 membrane polyspecificity reagent, FACS + sequencing; frameworks hold sequencing errors
# In short: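 In a synthetic yeast display library (Saccharomyces cerevisiae BJ5465), nanobody expression was induced with galactose for 36–48 hours. FACS gates were set low and high (top ~1%) using anti-HA fluorescence for expression and streptavidin fluorescence for binding of the Sf9 membrane reagent. Each polyreactivity label is drawn from the gate of origin.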
row,Sequence,polyreactivity (PSR sort gate)
1,QVQLVESGGGLVQAGGSLRLSCAASGSTFSTNAMGWYRQAPGKERDLVAAISRSGGSTYYADTVKRRFTISRDIAKITVYLQMNSLKPEVSAVYYCARYSYRGTNVSYDYWGQGTQVTVSS,high polyreactivity
2,QVQLVESGGGLVQAGGSLRLSCAASGSTFSTNAMGWYRQAPGKERELVAAISYSGGSTYYADSVKGRFTISRDNAKNTVYLQMISLKPEDTAVYYCAADGYYYNSGGRYYEFYYWGQGTQVTVSS,low polyreactivity
3,QVQLVESGGGLVQAGGSLRLSCAASGSTFSTYAMGSYRQAPGKERELVATISKRGGSTYYADSVKGRFTISRDNAKNTVYLQMNSLKPEDTAVYYCATPRYRYYTIYDYGYWGQGTQVTVSS,high polyreactivity
4,QVQLVESGGGLVQAGGSLRLSCAASGSTFSTYAMGWYRQAPGKERELVAAIRSGGSTYYADSVKGRFTISRDNAKNTVYLQMNSLKPEDTAVYYCAAKPRNYSYRYYYWGQGTQVTVSS,high polyreactivity
5,QVQLVESGGGLVQAGGSLRLSCAASGSTFSVNAMGWYRQAPGKEREMVAAISSTGSTKYADSVKGRFTISRDNAKNTVYLQMNSLKPEDTAVYCAASNADYEYDPFSVWYFSPYDYWGQGTQVTVSS,low polyreactivity
6,QVQLVESGGGLVQAGGSLRLSCAASGSTFSVYAMGWYRQAPGKEMELVATITWNGGRTYYADSVKGRFTISRDNAKNTVYLQMNSLKPEDTAVYYCASPWLKPGNGIYGGYGYWGQGTQVTVSS,high polyreactivity
7,QVQLVESGGGLVQAGGSLRLSCAASGSTFSVYAMGWYRQAPGKERELVADITRGGSTYADSVKGRFTISRDNAKNTVYLQMNSLKPEDTAVYYCAREEVTPYPLYWSTREYDYWGQGTQVTVSS,low polyreactivity
8,QVQLVESGGGLVQAGGSLRLSCAASGSTFSVYAMGWYRQAPGKERELVATIRGRGGSTSYADSVKGRFTISRDNAKNTVYLQMNSLKPEDTAVYYCAARVVRDWASKRIILALSNYDYWGQGTQVTVSS,high polyreactivity
9,QVQLVESGGGLVQAGGSLRLSCAASGSTFSWYAMGWYRQAPGKERELVAAISSGGSTNYADSVKGRFTISRDNAKNTVYLQMNSMKPEDTAVYYCAAVWSRFLISYSTGWWFEYWGQGTKVTVSS,low polyreactivity
10,QVQLVESGGGLVQAGGSLRLSCAASGSTFSWYAMGWYRQAPGKERELVAAITRSGGRTYYADSVKGRFTISRDNAKNTVYLQMNSLKPEDTAVYYCAAVQYKSPHNYWGQGTQVTVSS,high polyreactivity
11,QVQLVESGGGLVQAGGSLRLSCAASGSTFSYNAMGWYRQAPGKERELVAAISGSGGTTYYADSVKGRFTISRDNAKNTVYLQMNSLKPEDTAVYYCAARPFRSWRYDYWGQGTQVTVSS,low polyreactivity
12,QVQLVESGGGLVQAGGSLRLSCAASGSTFSYNAMGWYRQAPGKERELVAAISRGDVSTYYADSVKGRFTISRDNAKNTVYLQMNSLKPEDSAVYYWAAYWYGSQYKWRYDYWGQGTQGTVSS,low polyreactivity
13,QVQLVESGGGLVQAGGSLRLSCAASGSTFSYNAMGWYRQAPGKERELVAAISWSGGSTYYADSVKGRFTISRDNAKNTVYLQMNSLKPEDTAVYYCASDSPYGYYEGDYWGQGTQVTVSS,low polyreactivity
14,QVQLVESGGGLVQAGGSLRLSCAASGSTFSYNAMGWYRQAPGKERELVAAITSRGGSTRYADSVKGRFTISRDNAKNTVYLQMNSLKPEDTAVYYCARPYSYYPYSTVNYWGQGTQVTVSS,high polyreactivity
15,QVQLVESGGGLVQAGGSLRLSCAASGSTFSYNAMGWYRQAPGKERELVAGITGRGGSTYYADSEKGRFTISRDNAKNTVYLQMYSLKPEDTAVYYCAADARSYGYPDDFWGQGTQVTVSS,high polyreactivity
16,QVQLVESGGGLVQAGGSLRLSCAASGSTFSYNAMGWYRQAPGKERELVATISNTDSTNYADSVKGRFTISRDNAKNTVYLQMNSLKPEVTAVYYCAVVSARIDYEYWGQGTQVTVSS,low polyreactivity
17,QVQLVESGGGLVQAGGSLRLSCAASGSTFSYNAMVWYRQAPRKERELVAAISRRGDNTYYADSVKGRFTISRDNAKNTVYLQMYSLKPEDTAVYYCAAVGYFVKQYAPRYGYWGHGTQVTVSS,low polyreactivity
18,QVQLVESGGGLVQAGGSLRLSCAASGSTFSYNDMGWYRQAPGKERELVAAISSGGSTKYADSVKGRFTISRDNAKNTVYLQMNSLKPEDTAVYYCNVDVKGRPTFWSPFGRFDYWGQGTQVTVSS,high polyreactivity
19,QVQLVESGGGLVQAGGSLRLSCAASGSTFSYNTMGWYRQAPGKERELVATISSSSGSTTYADSVKGRFTISRDIAKNTVYLQINSLKPEDTAVYYCNVDDPFYSGVVEFDYWGQGTQVTVSS,low polyreactivity
20,QVQLVESGGGLVQAGGSLRLSCAASGSTFSYYAIGWYRQAPGKERELVAAISRRGGSTYYADSVKGRFTISRDNAKNTVYLQMNRLKPEDTAVYYCAADYYFSSRIEYYYWGQGTQVTVSS,high polyreactivity
21,QVQLVESGGGLVQAGGSLRLSCAASGSTFSYYAMGWYRKAPGKERELVAAITIGGRTNYADSVKGRFTISRDNAKNTVYFQMNSLKPEDTAVYYCAASRVRSLRSYVWDLLLMDSWGQGTQVTVSS,high polyreactivity
22,QVQLVESGGGLVQAGGSLRLSCAASGSTFSYYAMGWYRQAPGKERELVAAITRGGSTYYADSVKGRFTISRDNAKNTVYLQMNSLKPEDTAVYYWAGQLLRYRYYYWGQGTQVNVSS,high polyreactivity

row,Sequence,polyreactivity (PSR sort gate)
1,QVQLVESGGGLVQAGGSLRLSCAASGSTFSYYTMGWYRQSPGKERELVAVISTSGGNTYYADSVKGRFTISRDNAKNTVYLQMNSLKPEDTAVYYCAAAYPRVTYKNGYYWGQGTQVTVSS,high polyreactivity
2,QVQLVESGGGLVQAGGSLRLSCAASGSTFTANAMGWYRQAPGKERELVAAITNSDGSTYYADSVKGRFTISRDNAKNTVYLQMNSLKPEDTAVYYCAAPADSGITQVWQALSDYWGQGTQVTVSS,low polyreactivity
3,QVQLVESGGGLVQAGGSLRLSCAASGSTFTANAMGWYRQAPWKERELVAAITNSDGSTYYADSVKGRFTISRDNAKNTVYLQMNSLKPEDTAVYYCAKDYYACYWEMDYWGQGTQVTVSS,low polyreactivity
4,QVQLVESGGGLVQAGGSLRLSCAASGSTFTAYAMGWYRQAPGKERELVADISDSGGSTYYADSVKGRFTISRDNAKNTVYLQMNSLKPEDTAVYYCAVDVRAYVVSKFDSWGQGTQVTVSS,low polyreactivity
5,QVQLVESGGGLVQAGGSLRLSCAASGSTFTAYAMGWYRQAPGKERELVADISKRSGGTYYADSVKGRFTISRDNAKNTVYLQMNSLKPEDTAVYYCGQGTQVTVSS,low polyreactivity
6,QVQLVESGGGLVQAGGSLRLSCAASGSTFTAYAMGWYRQAPGKERQLVAAISKRSGVTYYADSVKGRFTISRDNAKNTVYLQINSLKPEDTAVYYCGQGTQVTVSS,low polyreactivity
7,QVQLVESGGGLVQAGGSLRLSCAASGSTFTDNGMVWYRQAPGKARELVAGISYSGGSTYYADSVKGRFRISRDNAKNTVYLQMNSLKPEDTAVYYCAADRGGYYLSEYDYWGQVTQVTVSS,low polyreactivity
8,QVQLVESGGGLVQAGGSLRLSCAASGSTFTENTMGWYRQAPGKERELVAAITDSGGSTYYADSVKGRFTISRDNAKNTVYLQMNSLKPEDTAVYYCAADVQPDTRSTPEMDYWGQGTQVTVSS,low polyreactivity
9,QVQLVESGGGLVQAGGSLRLSCAASGSTFTFNAMAWYRQAPGKEREFVAAITASGGRTYYADSVKGRFTISRDNAKNTVYLQMNSLKPEDTAVYYCNASQWPSRFDYWGQGTQVTVSS,low polyreactivity
10,QVQLVESGGGLVQAGGSLRLSCAASGSTFTFNAMGWYRKAPGKERELVAAISGSDVTTYYADSVKGRFTISRDNAKNSVYLQMNSLKPEDTAVYYCAAESYVTTVTGPHTGDYWGQGTQVTVSS,low polyreactivity
11,QVQLVESGGGLVQAGGSLRLSCAASGSTFTFNAMGWYRQAPGKERELVAAIRWSTGGTYYADSVKGRFTISRDNAKNTVYLQMNSLKPEDTAVYYCAAQFVPYFYFSKYDYWGQGTQVTVSS,low polyreactivity
12,QVQLVESGGGLVQAGGSLRLSCAASGSTFTFYAMGWYRQAPGKERELVAAISGRGGSTYYADSVKGRFTISRDNAMNTVYLQMNSLKPEDTAVYYCAAGWSRVWRRDFGYWGQGTQVTVSS,low polyreactivity
13,QVQLVESGGGLVQAGGSLRLSCAASGSTFTFYAMGWYRQAPGKERELVASITQSTGSTHYADSVKGRFTISRDNAKNTVYLQMNSLKPEDTSVYYCNAQKIVYYWVTLFPYYYWGQGTQVTVSS,low polyreactivity
14,QVQLVESGGGLVQAGGSLRLSCAASGSTFTGNAMGWYSQAPGKERELVAAISRSGGRTYYADSVKGRFTISRDNAKNTVYLQMNSLKPEDTAVYYCNAVRNRGQRTAFDYWGQGTQVTVSS,high polyreactivity
15,QVQLVESGGGLVQAGGSLRLSCAASGSTFTGNSMGWYRQAPGKERELVAAISSSGASTYYADSVKGPFTISRDNAKNTVYLQMNSLKPEDTAVYYCAAELFYYPTPFREYDYWGQGTQVTVSS,low polyreactivity
16,QVQLVESGGGLVQAGGSLRLSCAASGSTFTGYAMGWYRPAPGKERELVAGITGSGGSTYYADSVKGRFTISRDNAKNTVYLQMNSLKPEDTAVYYCAAELYDYGDLYYSEYDYWGQGTQVTVSS,low polyreactivity
17,QVQLVESGGGLVQAGGSLRLSCAASGSTFTGYAMGWYRQAPGKERELVAAISISGGRTFYADSVKGRFTISRDNAKNTVYLQMNSLKPEDTAVYYCAAYLRGSKYSFDYWGQGTQVTVSS,high polyreactivity
18,QVQLVESGGGLVQAGGSLRLSCAASGSTFTHYAMGWYRQAPGKERELVAAITSSGGSTYYADSVKGRFTISRDNAKNTVYLQMNSLKPEDTAVYYCAARGSYRNRYRHDYWGQGTQVTVSS,high polyreactivity
19,QVQLVESGGGLVQAGGSLRLSCAASGSTFTINAMGWYRQAPGKERELVAAISRSGVRTFYADSVKGRFTNSRDNAKNTVYLQRNSLKPEDTAVYYCAKQTYRVTTDEGDYWGQGTQVTVSS,high polyreactivity
20,QVQLVESGGGLVQAGGSLRLSCAASGSTFTINVMGWYRQAPGKERELVAAINGGGRTNYADSVKGRFTSSRDNAKNTVYLQMNSLKPEDTAVYYCAADGLSNVRQMDYWGQGTQVTVSS,low polyreactivity
21,QVQLVESGGGLVQAGGSLRLSCAASGSTFTINVMGWYRQAPGKERELVAAINGGGRTNYADYVKGRFTISRDNAKNTVYLQMNSLKPEDTAVYYCAADCYTYWFYQLIPDYDYWGQGTQVTVSS,low polyreactivity
